Assays:
[1] = molecular target: T1, recombinant human RON SEMA and PSI domains (human, UniProt Q04912 25-571); test: SPR, purified Ab captured on anti-human IgG Fc, 25 C
T1 construct: domain: SEMA+PSI; Commercial protein (R&D Systems); also called rhRON SEMA+PSI; hRON SEMA+PSI

[2] = molecular target: T1, recombinant human RON SEMA and PSI …; test: SPR, purified Ab captured on anti-human IgG Fc, 37 C
Experimental: (§1) Goat anti-human IgG Fc (Jackson ImmunoResearch, Catalog No. 109-005-098) was immobilized on carboxymethylated dextran CM4 sensor chips (Biacore) by amine coupling (Biacore) using a standard coupling protocol according to the vendor's instructions. The analyses were performed at 37° C. using PBS (Invitrogen) containing 0.05% surfactant P20 (Biacore) as running buffer.
(§2) The antibodies were captured in individual flow cells at a flow rate of 60 μl/minute. Injection time was varied for each antibody to yield an Rₘₐₓ between 30 and 60 RU. Buffer or rhRON SEMA+PSI diluted in running buffer was injected sequentially over a reference surface (no antibody captured) and the active surface (antibody to be tested) for 300 seconds at 60 μl/minute. The dissociation phase was monitored for up to 1200 seconds. The surface was then regenerated with two 60 second injections of Glycine pH 2.25 (made from Glycine pH 2.0 (Biacore) and pH 2.5 (Biacore)) at 60 μl/minute. For the initial screening, only one or two concentrations of rhRON SEMA+PSI were tested, typically 10.0 and 2.5 nM (results are summarized in Table 20).
The binding affinities and kinetics of certain purified monoclonal antibodies were also determined. To further characterize certain antibodies, the surface plasmon resonance experiments described above were conducted using concentrations of rhRON SEMA+PSI between 0.3125 nM and 10.0 nM (a 2-fold serial dilution).

[3] = molecular target: T1, recombinant human RON SEMA and PSI …; test: SPR, Ab captured on anti-human IgG Fc, 37 C, screening
Experimental: as §1, §2
Kinetic parameters were determined using the kinetic function of the BIAevaluation software (Biacore) with double reference subtraction. Kinetic parameters for each antibody, kₐ (association rate constant), kd (dissociation rate constant) and KD (equilibrium dissociation constant) were determined. Certain monoclonal antibodies were screened using cell culture media supernatant containing secreted antibody, and kinetic values of the monoclonal antibodies on rhRON SEMA+PSI at 37° C. are summarized in Table 20.

[4] = molecular target: T2, human wild-type RON (cell surface) (human, UniProt Q04912 25-1400); test: FACS titration on PC3 cells, 4 C
T2 construct: whole, on cells; also called Human RON; wt RON
Experimental: (§3) Binding to cell surface human wild-type RON and the delta 160 RON variant by antibodies 07F01, Sh07F01-62, 29B06, and Sh29B06-78 was measured at 4° C., using Fluorescence Activated Cell Sorting (FACS). PC3 cells expressing the human wild-type RON, and HT29 cells expressing the delta 160 variant, were harvested using cell dissociation buffer (Invitrogen), washed twice with FACS buffer (PBS with 0.5% BSA), and treated 10 minutes with Cyto Q Antibody diluent and FC receptor block (Innovex Biosciences, Richmond, Calif.). Purified antibodies were diluted in FACS buffer over a concentration range from 0.01 nM to 25 nM. Cells were incubated with 100 μl of antibody for one hour, washed with FACS buffer three times, and incubated for 45 minutes with goat anti-mouse PE-conjugated antibody (Jackson ImmunoResearch Laboratories, West Grove, Pa.) or donkey anti-human PE-conjugated antibody (Jackson ImmunoResearch Laboratories, West Grove, Pa.). Cells were washed three times with FACS buffer, resuspended in 300 μl of FACS buffer, and analyzed using a Beckman Coulter Cytomics FC 500 FACS instrument. All four antibodies were compared in the same experiment.

[5] = molecular target: T3, delta 160 RON variant (cell surface) (human, UniProt Q04912 25-1400); test: FACS titration on HT29 cells, 4 C
T3 construct: whole, on cells; Splice variant; also called delta 160 variant
Experimental: as §3

[6] = molecular target: T1, recombinant human RON SEMA and PSI …; test: SPR, Ab captured on anti-human IgG Fc, 25 C
[7] = molecular target: T1, recombinant human RON SEMA and PSI …; test: SPR, Ab captured on anti-human IgG Fc, 37 C

Row | Binder | Kd [1] | koff [1] | kon [1] | Kd [2] | koff [2] | kon [2] | Kd [3] | koff [3] | kon [3] | Kd [4] | Kd [5] | Kd [6] | koff [6] | kon [6] | Kd [7] | koff [7] | kon [7]
1 | Sh07F01-2 (antibody, human IgG1, kappa, V domains shown, also called Chimeric 07F01 C102S) VH: EVKLLESGGGLVQPGGSLKLSCAASGFDFSRHWMSWVRLAPGKGLEWIAEINPDSRTINYTPSLKEKFIISRDNAKNSLFLQMNRVRSEDTALYYCARRVRIHYYGAMDSWGQGTSVTVSS VL: DIVLTQSQKIVSTSVGARVSVTCKASQNVGSSLVWYQQKPGQSPKTLIYSASFRYSGVPDRFTGSGSGTDFTLTISNVQSEDLADYFCQQYNNYPLTFGAGTKLELKR | 82 pM | 9.8e-05 s⁻¹ | 1.2e+06 M⁻¹ s⁻¹ | 310 pM | 0.00053 s⁻¹ | 1.7e+06 M⁻¹ s⁻¹ | 380 pM | 0.00073 s⁻¹ | 2e+06 M⁻¹ s⁻¹ | – | – | – | – | – | – | – | –
2 | Sh07F01-62 (antibody, human IgG1, kappa, V domains shown, Humanized, human IgG1/kappa: Sh07F01 Hv3-48 D28T T60A L63V E65G IgG1 + HE L 07F01 Kv1-9 Kappa) VH: EVQLVESGGGLVQPGGSLRLSCAASGFTFSRHWMSWVRQAPGKGLEWVSEINPDSRTINYAPSVKGRFTISRDNAKNSLYLQMNSLRAEDTAVYYCARRVRIHYYGAMDSWGQGTTVTVSS VL: DIQLTQSQSFVSTSVGDRVTVTCRASQNVGSSLVWYQQKPGKSPKTLIYSASFLYSGVPSRFSGSGSGTEFTLTISSVQPEDFADYFCQQYNNYPLTFGGGTKVEIKR | 85 pM | 0.00016 s⁻¹ | 1.8e+06 M⁻¹ s⁻¹ | 250 pM | 0.00069 s⁻¹ | 2.8e+06 M⁻¹ s⁻¹ | 360 pM | 0.0014 s⁻¹ | 3.9e+06 M⁻¹ s⁻¹ | 43 pM | 118 pM | 85 pM | 0.00016 s⁻¹ | 1.8e+06 M⁻¹ s⁻¹ | 250 pM | 0.00069 s⁻¹ | 2.8e+06 M⁻¹ s⁻¹
3 | Sh29B06-78 (antibody, human IgG1, kappa, V domains shown, Humanized, human IgG1/kappa: Hu29B06 Hv4-59 D27G T30S M48I I67V Y78F IgG1 + Sh29B06 Kv2-28 Kappa) VH: QVQLQESGPGLVKPSETLSLTCTVSGGSISSGYWNWIRKPPGKKLEYIGYISYSGKTYYNPSLKSRVTISRDTSKNQFSLKLSSVTAADTAVYYCARSKYDYAMDYWGQGTLVTVSS VL: DIVMTQSPLSLPVTPGEPASISCRASEIVDNFGISFMNWYLQKPGQSPQLLIYAASNQGSGVPDRFSGSGSGTDFTLKISRVEAEDVGVYYCQQSKEVPPTFGGGTKVEIKR | 52 pM | 3.9e-05 s⁻¹ | 750000 M⁻¹ s⁻¹ | 110 pM | 0.00011 s⁻¹ | 1e+06 M⁻¹ s⁻¹ | – | – | – | 90 pM | 239 pM | 48 pM | 3.1e-05 s⁻¹ | 680000 M⁻¹ s⁻¹ | 110 pM | 0.0001 s⁻¹ | 960000 M⁻¹ s⁻¹
4 | RON8 (antibody, V domains shown) VH: EVQLVESGGGLVQPGGSLRLSCAASGFTFSSYLMTWVRQAPGKGLEWVANIKQDGSEKYYVDSVKGRFTISRDNAKNSLNLQMNSLRAEDTAVYYCTRDGYSSGRHYGMDVWGQGTTVIVSS VL: EIVLTQSPATLSLSPGERATLSCRASQSVSRYLAWYQQKPGQAPRLLIYDASNRATGIPARFSGSGSGTDFTLTISSLEPEDFAVYYCQQRSNWPRTFGQGTKVEIKR | – | – | – | – | – | – | – | – | – | – | – | 670 pM | 0.00068 s⁻¹ | 1.2e+06 M⁻¹ s⁻¹ | 920 pM | 0.0025 s⁻¹ | 7e+06 M⁻¹ s⁻¹

The remaining lines, values ahead:

Row | Kd [1] | koff [1] | kon [1] | Kd [2] | koff [2] | kon [2] | Kd [3] | koff [3] | kon [3] | Kd [4] | Kd [5] | Kd [6] | koff [6] | kon [6] | Kd [7] | koff [7] | kon [7] | Binder
5 | 110 pM | 0.00018 s⁻¹ | 1.6e+06 M⁻¹ s⁻¹ | 240 pM | 0.00079 s⁻¹ | 3.2e+06 M⁻¹ s⁻¹ | 540 pM | 0.0014 s⁻¹ | 2.6e+06 M⁻¹ s⁻¹ | – | – | – | – | – | – | – | – | Sh07F01-83 (antibody, human IgG1, kappa, V domains shown, Humanized, human IgG1/kappa: Sh07F01 Hv3-48 D28T T60A L63V E65G IgG1 + Sh07F01 Kv1-9 F1 Kappa) VH: EVQLVESGGGLVQPGGSLRLSCAASGFTFSRHWMSWVRQAPGKGLEWVSEINPDSRTINYAPSVKGRFTISRDNAKNSLYLQMNSLRAEDTAVYYCARRVRIHYYGAMDSWGQGTTVTVSS VL: DIQLTQSPSFLSASVGDRVTITCRASQNVGSSLVWYQQKPGKAPKTLIYSASFLYSGVPSRFSGSGSGTEFTLTISSLQPEDFATYYCQQYNNYPLTFGGGTKVEIKR
6 | 90 pM | 0.00011 s⁻¹ | 1.2e+06 M⁻¹ s⁻¹ | 300 pM | 0.00056 s⁻¹ | 1.8e+06 M⁻¹ s⁻¹ | – | – | – | – | – | – | – | – | – | – | – | Sh07F01-43 (antibody, human IgG1, kappa, V domains shown, Humanized, human IgG1/kappa: Sh07F01 Hv3-48 IgG1 + HE L 07F01 Kv1-9 Kappa) VH: EVQLVESGGGLVQPGGSLRLSCAASGFDFSRHWMSWVRQAPGKGLEWVSEINPDSRTINYTPSLKERFTISRDNAKNSLYLQMNSLRAEDTAVYYCARRVRIHYYGAMDSWGQGTTVTVSS VL: DIQLTQSQSFVSTSVGDRVTVTCRASQNVGSSLVWYQQKPGKSPKTLIYSASFLYSGVPSRFSGSGSGTEFTLTISSVQPEDFADYFCQQYNNYPLTFGGGTKVEIKR
7 | 120 pM | 0.00014 s⁻¹ | 1.1e+06 M⁻¹ s⁻¹ | 300 pM | 0.00078 s⁻¹ | 2.5e+06 M⁻¹ s⁻¹ | 560 pM | 0.0012 s⁻¹ | 2.3e+06 M⁻¹ s⁻¹ | – | – | – | – | – | – | – | – | Sh07F01-69 (antibody, human IgG1, kappa, V domains shown, Humanized, human IgG1/kappa: Sh07F01 Hv3-48 IgG1 + Sh07F01 Kv1-9 F1 Kappa) VH: EVQLVESGGGLVQPGGSLRLSCAASGFDFSRHWMSWVRQAPGKGLEWVSEINPDSRTINYTPSLKERFTISRDNAKNSLYLQMNSLRAEDTAVYYCARRVRIHYYGAMDSWGQGTTVTVSS VL: DIQLTQSPSFLSASVGDRVTITCRASQNVGSSLVWYQQKPGKAPKTLIYSASFLYSGVPSRFSGSGSGTEFTLTISSLQPEDFATYYCQQYNNYPLTFGGGTKVEIKR
8 | – | – | – | – | – | – | 260 pM | 0.00022 s⁻¹ | 870000 M⁻¹ s⁻¹ | – | – | – | – | – | – | – | – | Sh29B06-9 (antibody, human IgG1, kappa, V domains shown, Chimeric 29B06 Heavy IgG1 + Sh29B06 Kv2-28 Kappa) VH: EVQLQESGPSLVKPSQTLSLTCSVTGDSITSGYWNWIRKFPGNKLEYMGYISYSGKTYYNPSLKSRISITRDTSKNHYYLQLISVTAEDTATYYCARSKYDYAMDYWGQGTSVTVSS VL: DIVMTQSPLSLPVTPGEPASISCRASEIVDNFGISFMNWYLQKPGQSPQLLIYAASNQGSGVPDRFSGSGSGTDFTLKISRVEAEDVGVYYCQQSKEVPPTFGGGTKVEIKR
9 | 140 pM | 9.5e-05 s⁻¹ | 670000 M⁻¹ s⁻¹ | 460 pM | 0.00033 s⁻¹ | 730000 M⁻¹ s⁻¹ | 640 pM | 0.00048 s⁻¹ | 780000 M⁻¹ s⁻¹ | – | – | – | – | – | – | – | – | Sh29B06-23 (antibody, human IgG1, kappa, V domains shown, Humanized, human IgG1/kappa: Hu29B06 Hv4-59 IgG1 (CDR graft with back mutations) + Sh29B06 Kv2-28 Kappa) VH: QVQLQESGPGLVKPSETLSLTCTVSGDSITSGYWNWIRKPPGKKLEYMGYISYSGKTYYNPSLKSRITISRDTSKNQYSLKLSSVTAADTAVYYCARSKYDYAMDYWGQGTLVTVSS VL: DIVMTQSPLSLPVTPGEPASISCRASEIVDNFGISFMNWYLQKPGQSPQLLIYAASNQGSGVPDRFSGSGSGTDFTLKISRVEAEDVGVYYCQQSKEVPPTFGGGTKVEIKR

Source: patent US20120027773A1 (AVEO PHARMACEUTICALS, published 2012)
